The values that follow are results of earlier work, collected in paper PMC1448213.

The data set has as its target high affinity NGF receptor (UniProt P35739).
UniProt P35739, sequence (P35739 33-418): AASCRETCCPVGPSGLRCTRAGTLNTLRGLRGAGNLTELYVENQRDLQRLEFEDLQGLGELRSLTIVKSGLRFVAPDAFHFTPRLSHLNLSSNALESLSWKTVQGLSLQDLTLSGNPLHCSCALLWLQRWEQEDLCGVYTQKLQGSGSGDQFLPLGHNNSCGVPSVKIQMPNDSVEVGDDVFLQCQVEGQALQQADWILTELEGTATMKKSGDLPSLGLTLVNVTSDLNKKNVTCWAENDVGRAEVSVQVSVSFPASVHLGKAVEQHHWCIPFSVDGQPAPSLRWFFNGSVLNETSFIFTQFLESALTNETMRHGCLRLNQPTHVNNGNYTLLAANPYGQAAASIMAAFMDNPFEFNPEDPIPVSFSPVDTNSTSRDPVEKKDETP

NGF, sequence (P01139 122-241): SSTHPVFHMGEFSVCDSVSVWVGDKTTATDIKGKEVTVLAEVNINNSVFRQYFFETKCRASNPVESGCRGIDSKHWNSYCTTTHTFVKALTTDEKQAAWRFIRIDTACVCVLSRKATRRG

One may read the Kd as the concentration at which binding is half-saturated. As to NGF (from UniProt P01139), the Kd is 0.6 nM.
